Measured values reported in PMC8131915 (The Journal of Biological Chemistry, 2021).
One block for each binder: values may come before it.

Assays:
[1] = target: transcription-associated protein 1 (Tra1) (S. cerevisiae (endogenous), UniProt P38811 1-3744); assay: cross-linking
[2] = target: SAGA complex (Spt7-TAP purified) (Saccharomyces cerevisiae, UniProt P35177;P38915;P38811;P50875;P06844;Q12060;P38129;P53040;Q05027;Q12030;Q03761;Q03 …); assay: fluorescence polarization
[3] = target: SAGA complex (Spt7-TAP purified);TBP (Saccharomyces cerevisiae;Saccharomyces …, UniProt P35177;P38915;P38811;P50875;P06844;Q12060;P38129;P53040;Q05027;Q12030;Q03761;Q03 …, |); assay: EMSA

Chain of transcription-associated protein 1 (Tra1) (P38811 whole entry): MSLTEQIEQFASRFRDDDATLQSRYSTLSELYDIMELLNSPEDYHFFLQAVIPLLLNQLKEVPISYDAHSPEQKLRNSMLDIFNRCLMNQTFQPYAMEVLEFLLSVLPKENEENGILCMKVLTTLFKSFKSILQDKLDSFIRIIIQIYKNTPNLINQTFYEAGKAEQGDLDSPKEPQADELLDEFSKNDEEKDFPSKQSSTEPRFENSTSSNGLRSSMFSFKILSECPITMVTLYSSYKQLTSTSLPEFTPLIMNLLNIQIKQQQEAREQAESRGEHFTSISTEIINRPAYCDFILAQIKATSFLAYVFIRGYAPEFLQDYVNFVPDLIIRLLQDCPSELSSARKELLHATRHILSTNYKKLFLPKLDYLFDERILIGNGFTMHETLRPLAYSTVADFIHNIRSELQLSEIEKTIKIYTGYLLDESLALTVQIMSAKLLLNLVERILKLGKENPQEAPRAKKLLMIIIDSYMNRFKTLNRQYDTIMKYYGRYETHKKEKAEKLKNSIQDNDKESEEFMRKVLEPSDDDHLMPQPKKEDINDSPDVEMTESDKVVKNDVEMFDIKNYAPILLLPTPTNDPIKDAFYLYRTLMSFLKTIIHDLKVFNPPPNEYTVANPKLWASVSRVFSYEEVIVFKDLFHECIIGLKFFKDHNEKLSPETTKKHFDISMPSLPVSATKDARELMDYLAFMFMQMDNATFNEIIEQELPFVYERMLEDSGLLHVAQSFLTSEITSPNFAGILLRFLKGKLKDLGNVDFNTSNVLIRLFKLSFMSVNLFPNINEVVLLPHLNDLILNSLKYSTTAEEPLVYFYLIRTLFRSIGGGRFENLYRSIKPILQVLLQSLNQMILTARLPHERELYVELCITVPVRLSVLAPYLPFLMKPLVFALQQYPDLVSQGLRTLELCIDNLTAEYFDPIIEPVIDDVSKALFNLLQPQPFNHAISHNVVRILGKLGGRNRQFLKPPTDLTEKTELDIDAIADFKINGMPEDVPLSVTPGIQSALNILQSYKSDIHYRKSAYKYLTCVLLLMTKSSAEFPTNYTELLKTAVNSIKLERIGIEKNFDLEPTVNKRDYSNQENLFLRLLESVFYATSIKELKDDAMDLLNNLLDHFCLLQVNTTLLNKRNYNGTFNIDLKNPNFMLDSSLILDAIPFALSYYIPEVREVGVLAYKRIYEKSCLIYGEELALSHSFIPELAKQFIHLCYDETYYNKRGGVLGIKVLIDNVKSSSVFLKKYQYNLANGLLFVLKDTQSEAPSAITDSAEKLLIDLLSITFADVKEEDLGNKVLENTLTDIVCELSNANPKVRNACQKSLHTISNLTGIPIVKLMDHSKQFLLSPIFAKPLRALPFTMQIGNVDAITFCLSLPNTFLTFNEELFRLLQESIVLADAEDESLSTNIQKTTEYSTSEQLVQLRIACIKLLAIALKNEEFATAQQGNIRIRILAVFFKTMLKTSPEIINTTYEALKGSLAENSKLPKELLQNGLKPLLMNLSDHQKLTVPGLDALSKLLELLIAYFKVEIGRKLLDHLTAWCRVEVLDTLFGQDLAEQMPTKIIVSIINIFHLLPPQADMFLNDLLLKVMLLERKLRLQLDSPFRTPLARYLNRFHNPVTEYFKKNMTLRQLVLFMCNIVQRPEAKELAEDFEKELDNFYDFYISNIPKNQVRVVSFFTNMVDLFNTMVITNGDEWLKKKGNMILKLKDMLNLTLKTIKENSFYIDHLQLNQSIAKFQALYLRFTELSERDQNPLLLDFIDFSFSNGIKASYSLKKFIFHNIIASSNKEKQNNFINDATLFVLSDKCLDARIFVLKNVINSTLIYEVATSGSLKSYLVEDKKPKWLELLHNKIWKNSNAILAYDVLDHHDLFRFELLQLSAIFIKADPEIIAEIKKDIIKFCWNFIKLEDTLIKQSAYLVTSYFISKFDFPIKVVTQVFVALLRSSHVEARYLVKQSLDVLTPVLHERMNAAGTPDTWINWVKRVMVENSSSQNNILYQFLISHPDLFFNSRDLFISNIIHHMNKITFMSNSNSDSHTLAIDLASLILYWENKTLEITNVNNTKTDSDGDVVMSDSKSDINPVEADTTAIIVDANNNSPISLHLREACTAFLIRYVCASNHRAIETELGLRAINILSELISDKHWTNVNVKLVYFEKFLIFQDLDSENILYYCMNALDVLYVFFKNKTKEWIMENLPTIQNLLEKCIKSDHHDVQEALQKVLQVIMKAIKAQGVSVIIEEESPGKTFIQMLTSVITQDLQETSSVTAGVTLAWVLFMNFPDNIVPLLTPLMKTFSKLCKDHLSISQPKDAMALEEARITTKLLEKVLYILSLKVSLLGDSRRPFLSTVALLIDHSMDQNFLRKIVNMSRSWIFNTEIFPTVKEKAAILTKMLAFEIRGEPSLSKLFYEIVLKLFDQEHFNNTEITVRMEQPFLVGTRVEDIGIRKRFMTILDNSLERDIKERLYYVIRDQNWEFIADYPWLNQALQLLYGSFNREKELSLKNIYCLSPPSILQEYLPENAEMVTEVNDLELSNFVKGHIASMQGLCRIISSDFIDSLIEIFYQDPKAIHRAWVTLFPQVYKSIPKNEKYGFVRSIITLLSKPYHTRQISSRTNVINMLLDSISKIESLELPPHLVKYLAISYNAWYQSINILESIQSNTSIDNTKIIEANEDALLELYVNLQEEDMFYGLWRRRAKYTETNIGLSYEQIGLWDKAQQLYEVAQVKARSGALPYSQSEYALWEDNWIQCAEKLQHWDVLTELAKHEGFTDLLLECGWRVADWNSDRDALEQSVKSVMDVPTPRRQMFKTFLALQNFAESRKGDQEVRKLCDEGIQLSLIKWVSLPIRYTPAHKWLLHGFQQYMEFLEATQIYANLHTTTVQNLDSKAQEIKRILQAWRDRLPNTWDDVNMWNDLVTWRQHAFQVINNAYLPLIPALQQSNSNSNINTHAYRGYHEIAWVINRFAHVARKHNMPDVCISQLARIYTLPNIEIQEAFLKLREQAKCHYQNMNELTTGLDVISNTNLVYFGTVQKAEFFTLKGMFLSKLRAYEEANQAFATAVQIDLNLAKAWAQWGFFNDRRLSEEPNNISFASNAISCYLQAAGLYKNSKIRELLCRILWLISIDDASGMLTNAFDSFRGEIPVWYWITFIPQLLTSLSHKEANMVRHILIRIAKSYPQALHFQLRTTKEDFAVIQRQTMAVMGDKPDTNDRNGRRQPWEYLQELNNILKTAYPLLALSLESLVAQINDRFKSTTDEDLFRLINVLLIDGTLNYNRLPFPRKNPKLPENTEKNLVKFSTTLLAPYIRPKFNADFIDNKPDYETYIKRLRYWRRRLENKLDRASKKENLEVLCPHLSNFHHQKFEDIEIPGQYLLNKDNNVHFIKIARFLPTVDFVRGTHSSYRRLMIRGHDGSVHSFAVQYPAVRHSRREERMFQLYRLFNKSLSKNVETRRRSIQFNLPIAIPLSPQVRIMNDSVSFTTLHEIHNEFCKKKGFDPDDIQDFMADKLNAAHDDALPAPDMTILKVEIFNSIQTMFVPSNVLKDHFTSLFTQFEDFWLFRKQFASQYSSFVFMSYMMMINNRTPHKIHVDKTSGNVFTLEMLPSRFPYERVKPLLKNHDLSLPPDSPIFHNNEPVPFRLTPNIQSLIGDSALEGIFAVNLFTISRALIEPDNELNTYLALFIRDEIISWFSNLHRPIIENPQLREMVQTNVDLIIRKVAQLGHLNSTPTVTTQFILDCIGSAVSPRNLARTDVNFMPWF

B2: 75-mer ssDNA, HIS4 promoter (ssDNA)
DNA: GCAGGAGGACGTAGGGTAGGACTATGAACAGTAGTATACTGTGTATATAATAGATATGGAACGTTATATTCACCT
Kd [2]: 15 ± 11 nM

B3: 75-mer dsDNA, HIS4 TATA-box promoter (dsDNA)
DNA 1: B2 DNA
DNA 2: AGGTGAATATAACGTTCCATATCTATTATATACACAGTATACTACTGTTCATAGTCCTACCCTACGTCCTCCTGC
binding result [3]: binds

Continued, values first:

binding result [1]: binds
B1: Taf12 (natural protein, S. cerevisiae (endogenous), UniProt Q03761 1-539, looked up)
chain: MSSNPENSGVNANNNTGTGNADAITGAQQNMVLQPRQLQEMAAKFRTLLTEARNVGETTPRGKELMFQAAKIKQVYDALTLNRRRQQAAQAYNNTSNSNSSNPASIPTENVPNSSQQQQQQQQQTRNNSNKFSNMIKQVLTPEENQEYEKLWQNFQVRHTSIKEKETYLKQNIDRLEQEINKQTDEGPKQQLQEKKIELLNDWKVLKIEYTKLFNNYQNSKKTFYVECARHNPALHKFLQESTQQQRVQQQRVQQQQQQQQQQQQQQQQQQQQQQQRQGQNQRKISSSNSTEIPSVTGPDALKSQQQQQNTITATNNPRGNVNTSQTEQSKAKVTNVNATASMLNNISSSKSAIFKQTEPAIPISENISTKTPAPVAYRSNRPTITGGSAMNASALNTPATTKLPPYEMDTQRVMSKRKLRELVKTVGIDEGDGETVIDGDVEELLLDLADDFVTNVTAFSCRLAKHRKSDNLEARDIQLHLERNWNIRIPGYSADEIRSTRKWNPSQNYNQKLQSITSDKVAAAKNNGNNVASLNTKK

binding result [1]: binds
B4: Ada1 (natural protein, S. cerevisiae (endogenous), UniProt Q12060 1-488, looked up)
chain: MSAIQSPAPKPLQPTYPAASPASTNAYMKPGLIGSPAVSNHTEPNNGNNETAEPQGPNQRIDLGAMIEELTSLLGKESWTKYAQIISLFILGKLSRKELSNELELVFSPSAASLEKSNTNHHHSLVRLHNQLLLGIFANSLRENPLGRNGNESSWGFGNGSNNPNNKLKRINKHNSQIEVYKKIVMSLPLNDRNRLKMITKEAGKRGFIFCSVFQARLNNIPKIPIVTNPESLKRVKSNNLKTPLEWSQDIMNGFNVPLASESHSLPDTDSFYLRMVGIAREHGLVGTVDARCVELISLALDQYLKNIIEFTIDTVRYRRKKYSDYYDLNESGLYKSVSEMAADKRDAKIKQLDDDKNEDECADEAKSINNGNNSSKDDIGDISMSSITKAGEAVNEELHENRTISLTNEDIYDSLSIFPNLVEPSGSYYALTNLGLVNDDELVDMKSNIDDLPDFLNEKPTFTPLDERNVGTRHELNWLIKGILTED
